Among the data in ChEMBL document CHEMBL4052696, “Varic acid analogues from fungus as PTP1B inhibitors: Biological evaluation and structure-activity relationships” (Bioorg Med Chem Lett, 2017) are Km values, retold here.

For orientation: Km means the concentration of substrate that gives half-maximal velocity.

Common to all, as to conditions: Homo sapiens
Compound in data set [1]: CCCc1cc(OC(=O)c2c(O)cc(OC(=O)c3c(O)cc(O)cc3CCC)cc2CCC)cc(O)c1C(=O)O
In words: Competitive inhibition of PTP1B (unknown origin) assessed as Km(app) for substrate at 0.1 uM using p-nitrophenyl phosphate substrate incubated for 30 mins by Lineweaver-Burk double reciprocal plot (reference value: 1.43 mM).

Compound in data set [2]: CCCc1cc(OC(=O)c2c(O)cc(OC(=O)c3c(O)cc(O)cc3CCC)cc2CCC)cc(O)c1C(=O)O
In words: Competitive inhibition of PTP1B (unknown origin) assessed as Km(app) for substrate at 0.25 uM using p-nitrophenyl phosphate substrate incubated for 30 mins by Lineweaver-Burk double reciprocal plot (reference value: 1.43 mM).

Compound in data set [3]: CCCc1cc(OC(=O)c2c(O)cc(OC(=O)c3c(O)cc(O)cc3CCC)cc2CCC)cc(O)c1C(=O)O
In words: Competitive inhibition of PTP1B (unknown origin) assessed as Km(app) for substrate at 0.4 uM using p-nitrophenyl phosphate substrate incubated for 30 mins by Lineweaver-Burk double reciprocal plot (reference value: 1.43 mM).

B1: Tyrosine-protein phosphatase non-receptor type 1 (Homo sapiens), P18031 (protein)
chain: MEMEKEFEQIDKSGSWAAIYQDIRHEASDFPCRVAKLPKNKNRNRYRDVSPFDHSRIKLHQEDNDYINASLIKMEEAQRSYILTQGPLPNTCGHFWEMVWEQKSRGVVMLNRVMEKGSLKCAQYWPQKEEKEMIFEDTNLKLTLISEDIKSYYTVRQLELENLTTQETREILHFHYTTWPDFGVPESPASFLNFLFKVRESGSLSPEHGPVVVHCSAGIGRSGTFCLADTCLLLMDKRKDPSSVDIKKVLLEMRKFRMGLIQTADQLRFSYLAVIEGAKFIMGDSSVQDQWKELSHEDLEPPPEHIPPPPRPPKRILEPHNGKCREFFPNHQWVKEETQEDKDCPIKEEKGSPLNAAPYGIESMSQDTEVRSRVVGGSLRGAQAASPAKGEPSLPEKDEDHALSYWKPFLVNMCVATVLTAGAYLCYRFLFNSNT
On to B1, for which the Km worked out at 12 mM in data set [1], 44 mM in data set [2] and 91 mM in data set [3].
